# Assay results reported in US11266675.
# Target: Heat shock cognate protein 70 (Hsc70) (UniProt P11142)
# Sequence (P11142 2-646): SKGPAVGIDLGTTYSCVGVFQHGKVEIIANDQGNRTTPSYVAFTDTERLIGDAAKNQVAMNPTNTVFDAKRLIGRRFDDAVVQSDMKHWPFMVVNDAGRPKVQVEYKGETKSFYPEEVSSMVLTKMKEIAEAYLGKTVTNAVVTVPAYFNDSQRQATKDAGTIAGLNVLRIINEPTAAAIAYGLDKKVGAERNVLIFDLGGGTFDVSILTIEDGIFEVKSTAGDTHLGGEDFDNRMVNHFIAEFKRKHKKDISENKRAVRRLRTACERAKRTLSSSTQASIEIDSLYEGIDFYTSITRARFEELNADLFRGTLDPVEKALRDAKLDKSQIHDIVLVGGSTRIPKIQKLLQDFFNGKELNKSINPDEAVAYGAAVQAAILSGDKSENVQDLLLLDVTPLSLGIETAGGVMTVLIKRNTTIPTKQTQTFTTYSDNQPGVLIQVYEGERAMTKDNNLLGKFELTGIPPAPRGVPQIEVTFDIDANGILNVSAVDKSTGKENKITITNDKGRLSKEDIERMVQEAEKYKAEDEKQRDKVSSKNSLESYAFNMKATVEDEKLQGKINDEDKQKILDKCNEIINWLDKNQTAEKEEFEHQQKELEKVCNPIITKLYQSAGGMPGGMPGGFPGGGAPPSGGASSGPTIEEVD
substance,measurement,value
recombinant His-tagged 2A^pro (2A protease of EV-A71),cleavage of eIF4G by recombinant 2A^pro in vitro (immunoblot),"the cleaved eIF4G was up-regulated in Hsc70 overexpressed cells, indicating an increase of 2A^pro proteolytic activity upon increased Hsc70 level"
